From PMC6745501, “Plant photoreceptors and their signaling components compete for COP1 binding via VP peptide motifs” (The EMBO Journal, 2019)
Substitutions are numbered along the chain they refer to.

Tests used:
[1] = target: T1, Arabidopsis COP1^349–675 WD40 domain (Arabidopsis, UniProt P43254 349-675); assay: crystal structure; co-crystals, 5 mg/ml COP1 with 3- to 10-fold molar excess of peptide; 1.25 M sodium malonate pH 7.5; 20°C; settings: both partners purified
T1 construct: COP1 (CONSTITUTIVELY PHOTOMORPHOGENIC 1) E3 ubiquitin ligase, Arabidopsis, WD40 domain, residues 349-675; also called COP1 WD40 domain; COP1 WD40; not shown: His10, N-terminal, cleaved; Twin-Strep, N-terminal, cleaved
T1 sequence (looked up): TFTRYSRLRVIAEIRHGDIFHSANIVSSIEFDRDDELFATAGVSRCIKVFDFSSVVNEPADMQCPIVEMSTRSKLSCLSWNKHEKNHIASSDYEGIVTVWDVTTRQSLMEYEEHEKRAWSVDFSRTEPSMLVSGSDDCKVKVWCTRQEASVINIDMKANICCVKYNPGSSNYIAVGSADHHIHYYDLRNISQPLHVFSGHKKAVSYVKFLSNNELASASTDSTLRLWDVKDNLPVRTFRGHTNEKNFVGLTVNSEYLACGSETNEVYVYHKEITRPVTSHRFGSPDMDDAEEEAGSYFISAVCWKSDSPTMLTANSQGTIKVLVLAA

[2] = target: T2, COP1^349–675,Lys422Ala WD40 domain (Arabidopsis, UniProt P43254 349-675, Lys422Ala); assay: ITC; VP peptide (titrant, 500-3,000 μM) injected into COP1 WD40 in the cell at about 10-fold lower concentration; 150 mM NaCl, 20 mM HEPES 7.4, 2 mM BME; 25°C; one-site binding model; settings: both partners purified
T2 construct: COP1, Arabidopsis, WD40 domain, residues 349-675, Lys422Ala; also called COP1^Lys422Ala; not shown: His10, N-terminal, cleaved; Twin-Strep, N-terminal, cleaved
T2 sequence (looked up): T1 sequence (looked up) with K74A

[3] = target: T1, Arabidopsis COP1^349–675 WD40 domain; assay: as above; settings: both partners purified
[4] = target: the molecule itself; assay: SEC; purified recombinant chimeric UVR8 proteins alone, in the absence of UV-B
[5] = target: T1, Arabidopsis COP1^349–675 WD40 domain; assay: grating-coupled interferometry (GCI); COP1 WD40 amine-coupled (2,000 pg/mm^2), surface passivated with BSA; analyte full-length CRY2 activated by light (highest 14 μM) or CRY2^NC80 (highest 450 μM); 150 mM NaCl, 20 mM HEPES 7.4, 2 mM BME; 25°C; heterogenous ligand model; settings: both partners purified
[6] = target: T1, Arabidopsis COP1^349–675 WD40 domain; assay: grating-coupled interferometry (GCI); COP1 WD40 amine-coupled to the chip (2,000 pg/mm^2); analyte in 1:3 dilution series from 2 μM (UVR8 forms pre-monomerized by UV-B; HY5); 150 mM NaCl, 20 mM HEPES 7.4, 2 mM BME; 25°C; 1:1 binding model; settings: both partners purified

B1: STO^240–247 VP peptide (peptide, UniProt Q96288 240-247, looked up)
peptide: EHFIVPDL
notes: SALT TOLERANCE (STO/BBX24) transcription factor, residues 240-247; also called STO peptide; SALT TOLERANCE (STO/BBX24); source: synthetic peptide (Peptide Specialty Labs GmbH)
binding result [1]: binds

B2: CRY2^527–535 VP peptide (peptide, UniProt Q96524 527-535, looked up)
peptide: NDQQVPSAV
notes: also called CRY2 VP peptide; source: synthetic peptide (Peptide Specialty Labs GmbH)
fold reduction of binding against wild type COP1 [2]: ~30 fold | stoichiometry N [3]: 1.04

B3: UVR8^406–413 VP peptide (peptide, UniProt Q9FN03 406-413, looked up)
peptide: RYAVVPDE
notes: also called UVR8 VP peptide; UVR8 peptide; source: synthetic peptide (Peptide Specialty Labs GmbH)
fold increase in binding affinity against wild type COP1 [2]: ~10 fold | stoichiometry N [2]: 0.87 | binding result [3]: binds

B4: HYH^27–34 VP peptide (peptide, UniProt Q8W191 27-34, looked up)
peptide: ELLMVPDM
notes: HYH (HY5 homolog) transcription factor, residues 27-34; also called HYH peptide; source: synthetic peptide (Peptide Specialty Labs GmbH)
binding result [1]: binds

B5: UVR8^TRIB1VP chimera (recombinant) (other)
chain: MAEDMAADEVTAPPRKVLIISAGASHSVALLSGDIVCSWGRGEDGQLGHGDAEDRPSPTQLSALDGHQIVSVTCGADHTVAYSQSGMEVYSWGWGDFGRLGHGNSSDLFTPLPIKALHGIRIKQIACGDSHCLAVTMEGEVQSWGRNQNGQLGLGDTEDSLVPQKIQAFEGIRIKMVAAGAEHTAAVTEDGDLYGWGWGRYGNLGLGDRTDRLVPERVTSTGGEKMSMVACGWRHTISVSYSGALYTYGWSKYGQLGHGDLEDHLIPHKLEALSNSFISQISGGWRHTMALTSDGKLYGWGWNKFGQVGVGNNLDQCSPVQVRFPDDQKVVQVSCGWRHTLAVTERNNVFAWGRGTNGQLGIGESVDRNFPKIIEALSVDGASGQHIESSNIDPSSGKSWVSPAESDQIVPEY
stoichiometry N [4]: 2

B6: full‐length CRY2 (recombinant) (receptor, Arabidopsis, UniProt Q96524 1-612, looked up)
chain: MKMDKKTIVWFRRDLRIEDNPALAAAAHEGSVFPVFIWCPEEEGQFYPGRASRWWMKQSLAHLSQSLKALGSDLTLIKTHNTISAILDCIRVTGATKVVFNHLYDPVSLVRDHTVKEKLVERGISVQSYNGDLLYEPWEIYCEKGKPFTSFNSYWKKCLDMSIESVMLPPPWRLMPITAAAEAIWACSIEELGLENEAEKPSNALLTRAWSPGWSNADKLLNEFIEKQLIDYAKNSKKVVGNSTSLLSPYLHFGEISVRHVFQCARMKQIIWARDKNSEGEESADLFLRGIGLREYSRYICFNFPFTHEQSLLSHLRFFPWDADVDKFKAWRQGRTGYPLVDAGMRELWATGWMHNRIRVIVSSFAVKFLLLPWKWGMKYFWDTLLDADLECDILGWQYISGSIPDGHELDRLDNPALQGAKYDPEGEYIRQWLPELARLPTEWIHHPWDAPLTVLKASGVELGTNYAKPIVDIDTARELLAKAISRTREAQIMIGAAPDEIVADSFEALGANTIKEPGLCPSVSSNDQQVPSAVRYNGSKRVKPEEEEERDMKKSRGFDERELFSTAESSSSSSVFFVSQSCSLASEGKNLEGIQDSSDQITTSLGKNGCK
notes: cryptochrome 2 (CRY2), Arabidopsis blue-light photoreceptor, full length; not shown: His10, N-terminal, cleaved; Twin-Strep, N-terminal, cleaved
fold increase in binding affinity over the isolated CRY2 VP peptide [5]: ~200 fold

B7: full‐length HY5 protein (recombinant) (natural protein, Arabidopsis, UniProt O24646 1-168, looked up)
chain: MQEQATSSLAASSLPSSSERSSSSAPHLEIKEGIESDEEIRRVPEFGGEAVGKETSGRESGSATGQERTQATVGESQRKRGRTPAEKENKRLKRLLRNRVSAQQARERKKAYLSELENRVKDLENKNSELEERLSTLQNENQMLRHILKNTTGNKRGGGGGSNADASL
notes: ELONGATED HYPOCOTYL 5 (HY5) bZIP transcription factor, full length; not shown: His10, N-terminal, cleaved; Twin-Strep, N-terminal, cleaved
Kd [6]: ~1000 nM

B8: HFR1^57–64 VP peptide (peptide, UniProt Q9FE22 57-64, looked up)
peptide: YLQIVPEI
notes: LONG HYPOCOTYL IN FAR-RED 1 (HFR1) transcription factor, residues 57-64; also called HFR1 peptide; LONG HYPOCOTYL IN FAR‐RED 1; source: synthetic peptide (Peptide Specialty Labs GmbH)
binding result [1]: binds

B9: UVR8^HY5VP chimera (recombinant) (other)
chain: MAEDMAADEVTAPPRKVLIISAGASHSVALLSGDIVCSWGRGEDGQLGHGDAEDRPSPTQLSALDGHQIVSVTCGADHTVAYSQSGMEVYSWGWGDFGRLGHGNSSDLFTPLPIKALHGIRIKQIACGDSHCLAVTMEGEVQSWGRNQNGQLGLGDTEDSLVPQKIQAFEGIRIKMVAAGAEHTAAVTEDGDLYGWGWGRYGNLGLGDRTDRLVPERVTSTGGEKMSMVACGWRHTISVSYSGALYTYGWSKYGQLGHGDLEDHLIPHKLEALSNSFISQISGGWRHTMALTSDGKLYGWGWNKFGQVGVGNNLDQCSPVQVRFPDDQKVVQVSCGWRHTLAVTERNNVFAWGRGTNGQLGIGESVDRNFPKIIEALSVDGASGQHIESSNIDPSSGKSWVSPAEEIRRVPEFTGLTDGSSKGNGGDISVPQTDVKRVRI
stoichiometry N [4]: 2

B10: COL3^287–294 VP peptide (peptide, UniProt Q9SK53 287-294, looked up)
peptide: GFGVVPSF
notes: COL3/BBX4 transcription factor, residues 287-294 (holds Phe288); also called COL3 VP peptide; COL3 peptide; source: synthetic peptide (Peptide Specialty Labs GmbH)
stoichiometry N [2]: 0.9 | stoichiometry N [3]: 0.75

B11: CRY2^NC80 (CRY2^486–565) (domain or fragment, Arabidopsis, UniProt Q96524 486-565, looked up)
chain: SRTREAQIMIGAAPDEIVADSFEALGANTIKEPGLCPSVSSNDQQVPSAVRYNGSKRVKPEEEEERDMKKSRGFDERELF
notes: cryptochrome 2 (CRY2), Arabidopsis, fragment of the C-terminus containing the VP motif (NC80 domain), residues 486-565; also called NC80 domain; not shown: His10, N-terminal, cleaved; Twin-Strep, N-terminal, cleaved
binding result [5]: binds

B12: CO^366–373 VP peptide (peptide, UniProt Q39057 366-373, looked up)
peptide: GYGIVPSF
notes: CONSTANS (CO/BBX1) transcription factor, residues 366-373; also called CO VP peptide; CONSTANS; source: synthetic peptide (Peptide Specialty Labs GmbH)
fold stronger binding than to wild type COP1 [2]: ~4 fold | stoichiometry N [2]: 0.89 | stoichiometry N [3]: 1.03

B13: CRY1^544–552 VP peptide (peptide, UniProt Q43125 544-552, looked up)
peptide: EDQMVPSIT
notes: cryptochrome 1 (CRY1), Arabidopsis blue-light photoreceptor, residues 544-552 (holds Asp545); also called CRY1 VP peptide; CRY1 peptide; source: synthetic peptide (Peptide Specialty Labs GmbH)
stoichiometry N [2]: 0.98 | stoichiometry N [3]: 0.99
